The values that follow come from patent US20110082421A1.

Assay [1] concerns the target AGE-modified bovine serum albumin (AGE-BSA), prepared by incubating BSA in 1.67 M glucose for two months (bovine) (UniProt P02769). Kind of assay: FIG. 1A thermal stability, initial capacity (1 h at 37 C); batch adsorption, competitive ELISA. For orientation: In an ELISA, binding on a coated surface is turned into a signal by an enzyme label.
The target is the same in assay [2]. Kind of assay: FIG. 1D initial capacity of the RE series; batch adsorption, competitive ELISA.
The target is the same in assay [3]. Put plainly: FIG. 1D RE series, after processing cycles.
Assay [4] has the same target. Put plainly: FIG. 1D initial capacity of the RET series; batch adsorption, competitive ELISA.
For assay [5] the target is unchanged. Kind of assay: FIG. 1D final capacity after 6 cycles of regeneration, ethanol storage and 4 h at 37 C (RET); batch adsorption, competitive ELISA.
Assay [6] has the same target. Kind of assay: FIG. 1C initial capacity before storage in 20% ethanol; batch adsorption, competitive ELISA.
Assay [7] has the same target. Put plainly: FIG. 1A thermal stability, final capacity (4 h at 37 C); batch adsorption, competitive ELISA.
Assay [8] has the same target. Put plainly: FIG. 1C final capacity after 34 days in 20% ethanol at 4 C; batch adsorption, competitive ELISA.
Assay [9] has the same target. Put plainly: FIG. 1D final capacity after cycles of regeneration and ethanol storage (RE), 1 h at 37 C; batch adsorption, competitive ELISA.
Assay [10] has the same target. Put plainly: FIG. 1D RET series, after 6 processing cycles.

Chain of AGE-modified bovine serum albumin (AGE-BSA), prepared by incubating BSA in 1.67 M glucose for two months (bovine) (P02769 25-607 limits assumed): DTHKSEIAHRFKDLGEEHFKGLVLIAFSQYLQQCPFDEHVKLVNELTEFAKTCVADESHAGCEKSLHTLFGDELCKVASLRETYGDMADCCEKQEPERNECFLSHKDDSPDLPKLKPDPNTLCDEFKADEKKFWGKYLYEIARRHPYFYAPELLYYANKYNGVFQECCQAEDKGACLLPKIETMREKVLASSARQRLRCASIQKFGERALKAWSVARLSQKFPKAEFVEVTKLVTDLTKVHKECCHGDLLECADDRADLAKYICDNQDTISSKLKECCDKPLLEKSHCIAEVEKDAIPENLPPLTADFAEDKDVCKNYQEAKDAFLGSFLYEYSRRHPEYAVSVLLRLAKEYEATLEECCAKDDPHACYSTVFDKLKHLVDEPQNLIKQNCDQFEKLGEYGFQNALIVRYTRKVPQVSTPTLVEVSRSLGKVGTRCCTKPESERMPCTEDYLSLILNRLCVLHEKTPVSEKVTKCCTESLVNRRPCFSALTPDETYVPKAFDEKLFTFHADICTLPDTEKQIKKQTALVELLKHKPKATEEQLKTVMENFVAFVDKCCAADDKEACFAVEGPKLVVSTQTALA

Consider “RAGE-His construct (extracellular region of human RAGE, amino acid residues 23 through 340, with C-terminal six-histidine tag), immobilized on agarose (from UniProt Q15109 23-340) (receptor)”, for which the binding capacity (mg AGE-BSA/ml RAGE gel) in [1] worked out at 0.92; in assay [2], 0.92; in assay [4] it was 0.94; in assay [5] it was 0.79; in assay [6], 0.6; in assay [7], 0.94. The binding capacity (mg AGE-BSA/ml RAGE gel) came to 0.57 in assay [8] and 0.82 in assay [9]. This substance displayed a decrease of binding capacity against the initial value in assay [3] of 10%. Also, the decrease of binding capacity against the initial binding capacity in [10] came to 16%.
